From article PMC11190147, “Structures of the Staphylococcus aureus ribosome inhibited by fusidic acid and fusidic acid cyclopentane” (Scientific Reports, 2024)

B1: Staphylococcus aureus ribosomal protein uL6 (natural protein, S. aureus NCTC 8325-4 (endogenous), UniProt Q2FW21 1-178, looked up)
chain: MSRVGKKIIDIPSDVTVTFDGNHVTVKGPKGELSRTLNERMTFKQEENTIEVVRPSDSKEDRTNHGTTRALLNNMVQGVSQGYVKVLELVGVGYRAQMQGKDLILNVGYSHPVEIKAEENITFSVEKNTVVKVEGISKEQVGALASNIRSVRPPEPYKGKGIRYQGEYVRRKEGKTGK
notes: Large-subunit ribosomal protein uL6 of S. aureus, encoded by rplF, as it stands in the native 70S ribosome; Present as a subunit of the 70S ribosome, not as an isolated protein; source: endogenous, in 70S ribosomes purified from S. aureus NCTC 8325-4 (sucrose cushions, zonal centrifugation)

How the values were obtained:
[1] = molecular target: Staphylococcus aureus 70S ribosome (S. aureus NCTC 8325-4 (endogenous)) (UniProt Q2FW21); assay: cryo-EM structure; FA complex: 0.5 uM S. aureus 70S, 2 uM mRNA Z4AUGGCA, 2 uM E. coli tRNAfMet, 5 uM S. aureus EF-G, 400 uM FA, 1 mM GTP in HEPES polymix buffer (20 mM HEPES pH 7.5, 5 mM BME), 10 min steps at 37 °C; 1 ul of 25 uM FusB with 400 uM FA mixed into the drop on the grid; CHI state 2.5 Å (modelled), POST state 3.1 Å (not modelled)
[2] = molecular target: Staphylococcus aureus 70S ribosome (S. aureus NCTC 8325-4 (endogenous)) (UniProt Q2FW21); assay: cryo-EM structure; FA-CP complex: as the FA complex but with 5 uM E. coli tRNAfMet and 400 uM FA-CP instead of FA; CHI state 2.0 Å, POST state 2.4 Å
[3] = molecular target: T1, Staphylococcus aureus elongation factor G (Staphylococcus aureus, UniProt P68790 1-693); assay: cryo-EM structure; FA complex: 0.5 uM S. aureus 70S, 2 uM mRNA Z4AUGGCA, 2 uM E. coli tRNAfMet, 5 uM S. aureus EF-G, 400 uM FA, 1 mM GTP in HEPES polymix buffer (20 mM HEPES pH 7.5, 5 mM BME), 10 min steps at 37 °C; 1 ul of 25 uM FusB with 400 uM FA mixed into the drop on the grid; CHI state 2.5 Å (modelled), POST state 3.1 Å (not modelled); conditions: both partners purified
T1 construct: Ser-Leu that remains at the N-terminus after TEV cleavage of the 6xHis tag and linker; In the complexes EF-G carries GDP, magnesium and FA or FA-CP; also called EF-G; S. aureus EF-G; source: E. coli BL21 (DE3), purified (Ni Sepharose, TEV cleavage, reverse IMAC, Superdex-200 gel filtration); not shown: 6xHis, N-terminal, cleaved

Row | Molecule | percent of ribosomes bound to EF-G [1] | percent of 70S particles that contain EF-G [2] | binding result [3]
1 | Staphylococcus aureus elongation factor G (from UniProt P68790 1-693) (natural protein) | 60% | 72% | 
2 | B1 |  |  | binds
